Results on 14 sequences are retold here after patent US20180064827.

What all share (experiment): cell_activity
One series deals with ZFN 63194 (synthetic). Particulars: pair with 63195, Hepa1-6, 40 ug/mL.
A further series deals with ZFN 66079 (synthetic). The settings on record: pair with 64555, 5 ug/mL.
The subject of another series is ZFN 66075 (synthetic). The settings on record: pair with 64555, 5 ug/mL.
The next series relates to ZFN 64552 (synthetic). The settings on record: pair with 66083 or 66084, 5 ug/mL.
For another series, the system named is ZFN 63236 (synthetic). Particulars: pair with 63238, Hepa1-6, 40 ug/mL.
A further series has as its system ZFN 60287 (synthetic). The settings on record: pair with 60289, K562.
A further series deals with ZFN 60502 (synthetic). The settings on record: pair with 64066, HepG2, 40 ug/mL.
A further series concerns ZFN 64080 (synthetic). Particulars: pair with 60501, HepG2, 40 ug/mL.
The test system of the next series is ZFN 67458 (synthetic). Particulars: pair with 60501, HepG2, 40 ug/mL.
In a further series the test system is ZFN 63342 (synthetic). Particulars: pair with 63341, Hepa1-6, 40 ug/mL.
The subject of a further series is ZFN 63238 (synthetic). Particulars: pair with 63236, Hepa1-6, 40 ug/mL.
The test system of a further series is ZFN 63374 (synthetic). The settings on record: pair with 63375, Hepa1-6, 40 ug/mL.
The test system of the next series is ZFN 64555 (synthetic). The settings on record: pair with 66075, 5 ug/mL.
Another series has as its system ZFN 63410 (synthetic). Particulars: pair with 63411, Hepa1-6, 40 ug/mL.
The test system of the next series is ZFN 63375 (synthetic). Particulars: pair with 63374, Hepa1-6, 40 ug/mL.
Another series has as its system ZFN 63411 (synthetic). The settings on record: pair with 63410, Hepa1-6, 40 ug/mL.
The test system of the next series is ZFN 63341 (synthetic). The settings on record: pair with 63342, Hepa1-6, 40 ug/mL.
A further series relates to ZFN 63195 (synthetic). The settings on record: pair with 63194, Hepa1-6, 40 ug/mL.

In the series with ZFN 63194 (synthetic), “AAGGACTTGATATGAGAGGGTCCAACTT (double strand) [mouse KLKB1 63194 site]” registered an activity of 89.8 % indel.
For the sequence “ACTTGCTGCATATGTGGCTAAAGCAATA (double strand) [M. mulatta HAO1 left]”, the activity in the series with ZFN 66079 (synthetic) is 84.2 % indel; in the series on ZFN 66075 (synthetic), 86.9 % indel; in the series with ZFN 64552 (synthetic), 80.6 % indel.
In the series with ZFN 63236 (synthetic), “CCGCTGAGTTCACAGGTTGCCCCATGGA (double strand) [mouse KLKB1 63236 site]” yielded an activity of 92.5 % indel.
Turning to “CGGAGCTCACCCTGGCCGAGTTGAGGCA (double strand) [human PCSK9 60287 site]”, the activity in the series on ZFN 60287 (synthetic) was determined as 73.1 % indel.
For “CTGCCTTGCTGGACTGGTATTTGTGTCT (double strand) [human TTR 60502 site]”, the activity in the series on ZFN 60502 (synthetic) was determined as 37.3 % indel; in the series on ZFN 64080 (synthetic) it was 47 % indel; in the series with ZFN 67458 (synthetic), 47.6 % indel.
Take “CTGCTCCTTGCACGAAGGTCACATTCAG (double strand) [mouse KLKB1 63342 site]”: the activity in the series with ZFN 63342 (synthetic) amounted to 96.8 % indel.
“GCAGAGTGCTGGAAAATATCCATGGGGC (double strand) [mouse KLKB1 63238 site]” came in with an activity in the series with ZFN 63238 (synthetic) of 92.5 % indel.
Turning to “GGGAGCCATCTGTGGATAACCTTAAGGA (double strand) [mouse KLKB1 63374 site]”, in the series on ZFN 63374 (synthetic), the activity was determined as 93.7 % indel.
Sequence “TCCCAGCTGATAGATGGGTCTATTGCTT (double strand) [M. mulatta HAO1 right]” came in with an activity in the series on ZFN 64555 (synthetic) of 86.9 % indel.
“TCTTTAGGGGAGTGGCCATGGCAGGTCA (double strand) [mouse KLKB1 63410 site]” returned an activity in the series on ZFN 63410 (synthetic) of 84.7 % indel.
In the series with ZFN 63375 (synthetic), “TGCATGCCATAGGTGATCCTAGTTGGGG (double strand) [mouse KLKB1 63375 site]” showed an activity of 93.7 % indel.
In the series with ZFN 63411 (synthetic), “TTCACTTGCAGGCTGACCTGCCATGGCC (double strand) [mouse KLKB1 63411 site]” yielded an activity of 84.7 % indel.
On to “TTGACTTTGAAGGGGAAGAACTGAATGT (double strand) [mouse KLKB1 63341 site]”, for which the activity in the series with ZFN 63341 (synthetic) was 96.8 % indel.
In the series on ZFN 63195 (synthetic), “TTGTCGGTCTTAGAGATATTAAAGTTGG (double strand) [mouse KLKB1 63195 site]” displayed an activity of 89.8 % indel.
